The supplement of paper PMC10567573
± gives the standard deviation.

Experiment: protein stability index of a GFP-peptide fusion (GPS, HEK-293T) (PSI 1-6); higher = more stable
[1] = treatment: DMSO, c terminus: a fixed tail appended
[2] = treatment: MLN4924 1 uM, 8 h, c terminus: a fixed tail appended
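Also: 24-mer peptide tiles fused after GFP, lentivirally expressed, FACS-sorted into six equal bins by GFP/DsRed ratio, decoded by Illumina sequencing, PSI is the read-weighted mean bin number.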

Row | Sequence | protein stability index [1] | protein stability index [2] | protein stability index (treatment: DMSO, c terminus: native) | protein stability index (treatment: MLN4924 1 uM, 8 h, c terminus: native)
1 | TLLSVLKREAGNLTKATAPDQKSS [SSNA1] | 2.69 ± 0.13 | 2.83 ± 0.3 |  | 
2 | TLNVIELNVQKTVDYTGQAKAQVR [STX11] | 2.93 ± 0.28 | 3.19 ± 0.31 |  | 
3 | TLPEYRVSVPENLPVGTQLLTVTA [PCDHGA10] | 3.36 ± 0.29 | 3.24 ± 0.3 |  | 
4 | TLSGTCLLIANKRQSYDISIVAQV [CARM1] | 2.38 ± 0.69 | 2.68 ± 1.5 |  | 
5 | TLSNPQMSLEGTEKASWLGEQPQF [ELF3] | 4.26 ± 0.34 | 4.21 ± 0.37 |  | 
6 | TMDGEGTLFQTESPQSGSILTEET [PBXIP1] | 5.44 ± 0.066 | 5.43 ± 0.17 |  | 
7 | TMTSSQSMNFSMMSTNTVGLGLPM [CLINT1] | 3.02 ± 0.18 | 2.68 ± 0.083 |  | 
8 | TNETNVNIPQMADTLFERATNSSW [SNAP91] | 3.77 ± 0.11 | 3.99 ± 0.2 |  | 
9 | TNLKETYRCIREARYTMPSSLLAP [PLK2] | 2.34 ± 0.54 | 2.3 ± 0.08 |  | 
10 | TPLASSTDHQTPPTSPVQGTTPQI [HDAC6] | 5.17 ± 0.16 | 5.03 ± 0.16 |  | 
11 | TQEQARKEFQQVFIPECNDDGTYS [SMOC2] | 4.94 ± 0.27 | 4.84 ± 0.18 |  | 
12 | TQSWSSQSSFNSLQRVPSYDSFDS [ETS1] | 4.06 ± 0.2 | 3.98 ± 0.22 |  | 
13 | TRAILRERICSEEERAKAKHLARQ [CHCHD3] | 3.52 ± 0.33 | 3.76 ± 0.27 |  | 
14 | TRGWVQTLARMSRRTRGPVERAAA [C6orf223] | 3.23 ± 0.22 | 3.57 ± 0.098 |  | 
15 | TRKREDAEHNLVLFRKDVDDATLS [PRPH] | 4.77 ± 0.18 | 4.73 ± 0.097 |  | 
16 | TRLEQEIATYRSLLEGQDAKMAGI [KRT15] | 3.7 ± 0.22 | 3.72 ± 0.18 |  | 
17 | TRLLLQFTQPQQTSFALERNLRTQ [C8orf76] | 2.33 ± 0.46 | 2.52 ± 0.27 |  | 
18 | TRQNGIQTNKPALRAVRQRSEFTL [STX5] | 3.19 ± 0.32 | 3.37 ± 0.39 |  | 
19 | TSLGLTYDGMLSDVQSMPKTGILI [MAGEA10] | 1.93 ± 0.39 | 2.13 ± 0.41 |  | 
20 | TSRGKLGGQDSFESIESYDSCDRL [ETS1] | 4.62 ± 0.16 | 4.68 ± 0.13 |  | 
21 | TSTPEDKESGQEGVDSMAEEGTSD [SMARCE1] | 5.65 ± 0.25 | 5.51 ± 0.33 |  | 
22 | TVEKDESHAGKVVLRSWYEKNKHI [FAM50A] | 3.74 ± 0.33 | 3.87 ± 0.18 |  | 

Row | Sequence | protein stability index [1] | protein stability index [2] | protein stability index (treatment: DMSO, c terminus: native) | protein stability index (treatment: MLN4924 1 uM, 8 h, c terminus: native)
23 | TVFCLVVIFALCWFPLHLSRILKK [EDNRA] | 2.41 ± 0.61 | 2.42 ± 1.3 |  | 
24 | TVGVYEAAKLLNVDPDNVVLCLLA [GADD45A] | 2.26 ± 0.17 | 2.4 ± 0.22 |  | 
25 | TVTSLQVPVLKPMDLMVEVSPRRI [PPP2R2C] | 2.52 ± 0.18 | 2.65 ± 0.32 |  | 
26 | TWMLEVCEEQKCEEEVFPLAMNYL [CCND2] | 2.84 ± 0.23 | 2.89 ± 0.3 |  | 
27 | TYAVRKLDNTKFRSHEGETAYIRV [SRSF1] | 2.46 ± 0.39 | 2.38 ± 0.3 |  | 
28 | VAERKYTQEQARKEFQQVFIPECN [SMOC2] | 4.38 ± 0.19 | 4.41 ± 0.23 |  | 
29 | VCQRMLNQGFLKVERYHNLCQKQV [FBXO28] | 2.18 ± 0.36 | 2.37 ± 0.27 |  | 
30 | VCYFTNWAQYRQGEARFLPKDLDP [CHIT1] | 2.32 ± 0.14 | 2.34 ± 0.17 |  | 
31 | VEEILDRENKRMADSLASKVTRLK [BET1L] | 4.31 ± 0.4 | 4.52 ± 0.23 |  | 
32 | VEFNHTGELLATGDKGGRVVIFQR [PPP2R2C] | 2.54 ± 0.59 | 2.85 ± 0.44 |  | 
33 | VEGAMHIQECVPEDLELKKKIFAQ [CRYL1] | 4.74 ± 0.45 | 4.27 ± 0.2 |  | 
34 | VEKLKQMQEFFGLKVTGKPDAETL [MMP1] | 3.63 ± 0.23 | 3.83 ± 0.16 |  | 
35 | VELARYLVDVRQEQLQGFNTRVRE [DNAAF3] | 2.54 ± 0.36 | 2.77 ± 0.13 |  | 
36 | VEMESEEQIAERKRKMVSWEASSL [KMT2E] | 3.67 ± 0.22 | 3.87 ± 0.73 |  | 
37 | VENKEKDSNMPHFQTLQAIVSHFQ [CEP70] | 2.89 ± 0.27 | 3.18 ± 0.36 |  | 
38 | VFWPQLPNGLEAAYEFADRDEVRF [MMP1] | 2.86 ± 0.26 | 3.1 ± 0.3 |  | 
39 | VGGATLAQTTSEAAMEGATLDQTT [HDAC6] | 5.44 ± 0.11 | 5.39 ± 0.26 |  | 
40 | VGWWALLALVTLLSFATRFHRLDE [POMT2] | 3.42 ± 0.39 | 2.98 ± 0.39 |  | 
41 | VHFSEAIEKFIREPSLKATMGLAG [ALG2] | 2.33 ± 0.27 | 2.43 ± 0.24 |  | 
42 | VHIETFTTRHGEVGSALHRESFTS [C10orf62] | 2.57 ± 0.35 | 2.47 ± 0.58 |  | 
43 | VHNIVIFMRTSVKISYIGLMTQSS [TMEM106C] | 2.83 ± 0.38 | 3.03 ± 0.32 |  | 
44 | VIDLAESLVADNCVTLVWRMPDED [FSD1] | 2.35 ± 0.33 | 2.79 ± 0.27 |  | 

Row | Sequence | protein stability index [1] | protein stability index [2] | protein stability index (treatment: DMSO, c terminus: native) | protein stability index (treatment: MLN4924 1 uM, 8 h, c terminus: native)
45 | VIKISYSTPQGKGEVVKIPSRVHG [PWWP2B] | 2.5 ± 0.2 | 2.79 ± 0.3 |  | 
46 | VISLLNEPNTFSPANVDASVMFRK [UBE2R2] | 2.79 ± 0.31 | 3.04 ± 0.2 |  | 
47 | VITYILLSGASPFLGETKQETLTN [DAPK3] | 2.75 ± 0.26 | 2.86 ± 0.4 |  | 
48 | VIYCLGGYDGLNILNSVEKYDPHT [KLHL12] | 2.39 ± 0.54 | 2.18 ± 0.39 |  | 
49 | VKKSCWTEEEDRIICEAHKVLGNR [MYBL2] | 3.33 ± 0.52 | 3.58 ± 0.34 |  | 
50 | VLDCRPYLAFAASNVRGSLNVNLN [DUSP5] | 2.19 ± 0.34 | 1.99 ± 0.39 |  | 
51 | VLDELTLARADLEMQIENLKEELA [KRT17] | 3.04 ± 0.29 | 3.1 ± 0.37 |  | 
52 | VLDLEARGYIKPHVDSIKFCGATI [ALKBH7] | 2.14 ± 0.26 | 2.15 ± 0.42 |  | 
53 | VLEQFLTILPQEIQSRVQELHPES [ZNF263] | 2.56 ± 0.31 | 2.53 ± 0.39 |  | 
54 | VLGEDVIVNDELYLNGASVLPHKS [GMPPB] | 4.23 ± 0.28 | 4.31 ± 0.18 |  | 
55 | VLGIQVKCFHEIITIGYRVYHSYD [CDS1] | 3.25 ± 0.25 | 3.04 ± 0.17 |  | 
56 | VLLQTSPYHVDSLLQLSDACRFQE [TCF25] | 2.22 ± 0.41 | 2.41 ± 0.56 |  | 
57 | VNAVRKLLIEGRSVNEHTEEGESL [ANKRD17] | 4.73 ± 0.24 | 4.79 ± 0.35 |  | 
58 | VPARDGTSCKLTDLRGVCVSGKCE [ADAMTSL2] | 3.95 ± 0.23 | 3.92 ± 0.29 |  | 
59 | VPPKDSAPKDSAPQDLAPQVSAHH [TBC1D10A] | 5.47 ± 0.19 | 5.4 ± 0.18 |  | 
60 | VQFVFDAVTDVIIKNNLKDCGLF [GNAI1] |  |  | 2.68 ± 0.81 | 2.61 ± 0.73
61 | VQLQRIPLSAVYRICLGKFTFPGM [TPRG1] | 2.65 ± 0.69 | 2.21 ± 0.43 |  | 
62 | VQYGAGVACSETAPDLVLNAEMVQ [LOXL2] | 4.108 ± 0.007 | 4.47 ± 0.25 |  | 
63 | VRLQERTSGGLLSEAPNEKLFFVD [NOP53] | 3.5 ± 0.32 | 3.34 ± 0.33 |  | 
64 | VRPGTPPDFILKVVIDKHPVRFFV [CTDNEP1] | 2.95 ± 0.49 | 2.92 ± 0.42 |  | 
65 | VRYNRVGILRRILRTLRDFPAEER [ANKRD9] | 2.4 ± 0.16 | 2.6 ± 0.56 |  | 
66 | VSGDLTKEDIDLIDILWRQDIDLG [NFE2L1] | 3.02 ± 0.78 | 3.58 ± 0.61 |  | 

Row | Sequence | protein stability index [1] | protein stability index [2] | protein stability index (treatment: DMSO, c terminus: native) | protein stability index (treatment: MLN4924 1 uM, 8 h, c terminus: native)
67 | VSGFCRSPPVMVAGGRVFVLPCIQ [FLOT1] | 2.43 ± 0.38 | 2.45 ± 0.5 |  | 
68 | VSGINHDVTSGDHGDYFRLLLPGI [CPN1] | 2.46 ± 0.28 | 2.23 ± 0.38 |  | 
69 | VSTMRCKTRQKSEKQMEEKRRANQ [PPEF2] | 4.41 ± 0.7 | 4.79 ± 0.24 |  | 
70 | VTAEVDLFGDAFAASPGEAPAASE [SNAP91] | 5.02 ± 0.26 | 5.02 ± 0.16 |  | 
71 | VTFKLDDGAISAHKPLLICSCEWM [RHOBTB1] | 3.08 ± 0.33 | 2.56 ± 0.62 |  | 
72 | VTKLCVQFLNDQISVQNYKQVCKI [KLHL14] | 2.76 ± 0.46 | 2.42 ± 0.56 |  | 
73 | VTLNFNVPGEFKQDVTVVGSAGRL [GFOD1] | 2.23 ± 0.74 | 2.15 ± 0.37 |  | 
74 | VTSIHKYMVRRYFNKPSRVPAPEA [MYORG] | 2.42 ± 0.14 | 2.38 ± 0.3 |  | 
75 | VVEEVRRRATSGGKWPQVLFFPEG [LPCAT4] | 2.75 ± 0.31 | 3.24 ± 0.26 |  | 
76 | VVHWVQSIGLRDYAGNLHESGVHG [PPFIA4] | 2.56 ± 0.27 | 1.93 ± 0.36 |  | 
77 | VVKLENGEIETIARFGSGPCKTRD [APMAP] | 3.77 ± 0.16 | 3.72 ± 0.31 |  | 
78 | VVQGPDGRLELKPLLLRLPRICQR [FANCE] | 2.35 ± 0.33 | 2.45 ± 0.15 |  | 
79 | VYHSYDLPWFRTLSWYFLLCVNYF [CDS1] | 2.85 ± 0.42 | 2.63 ± 0.51 |  | 
80 | VYMFKNGSGDSGDSSEEESHRVVL [LYSMD4] | 3.49 ± 0.32 | 3.33 ± 0.38 |  | 
81 | WDRNRRRGGGAAGAGGGGSGAGGG [KLHDC10] | 5.16 ± 0.5 | 5.3 ± 0.2 |  | 
82 | WEEEEDHEKERPEHKSLESLADGG [FANCE] | 5.46 ± 0.34 | 5.53 ± 0.19 |  | 
83 | WEPRRDMWVRFRAFEAARDLDACA [ZSWIM9] | 2.79 ± 0.34 | 2.72 ± 0.2 |  | 
84 | WFLVPISSVICNDITAYLFGFFFG [CDS1] | 2.75 ± 0.036 | 3.16 ± 1 |  | 
85 | WLISEEEKTQKNQCWKSLFIDTYS [FBXO3] | 2.16 ± 0.3 | 2.45 ± 0.33 |  | 
86 | WQLFLAHNIPLETIIPILQHLKYK [INTS3] | 2.83 ± 0.44 | 2.63 ± 0.59 |  | 
87 | WRNIILMSLLHLGALYGITLIPTC [SCD] | 2.83 ± 0.19 | 2.9 ± 0.42 |  | 
88 | WSPSPPATPEQGLSAFYLSYFDML [SPDEF] | 2.14 ± 0.45 | 2.33 ± 0.48 |  | 
